According to patent US11795460B2, “Compositions and methods for TTR gene editing and treating ATTR amyloidosis” (Intellia Therapeutics, Inc., priority 2017, dated 2023):
Strand notation (5' to 3'): a small letter for the sugar, then the base; units joined by * are phosphorothioate-linked, units joined directly phosphodiester-linked; [ ] holds rarer units or linkages, { } end groups; capitals alone tell only the bases. m = 2'-O-methyl; r = 2'-OH (RNA)

Experiments:
TTR [1] = assay: TTR editing in primary human hepatocytes transfected with Spy Cas9 protein and sgRNAs (Table 12); type: cell-based; settings: primary human hepatocytes transfected with Spy Cas9 protein (RNP) and sgRNAs
Experimental: (§1) Primary liver hepatocytes. Primary human liver hepatocytes (PHH) and primary cynomolgus liver hepatocytes (PCH) (Gibco) were cultured per the manufacturer's protocol (Invitrogen, protocol 11.28.2012). In brief, the cells were thawed and resuspended in hepatocyte thawing medium with supplements (Gibco, Cat. CM7000) followed by centrifugation at 100 g for 10 minutes for human and 80 g for 4 minutes for cyno. The supernatant was discarded and the pelleted cells resuspended in hepatocyte plating medium plus supplement pack (Invitrogen, Cat. A1217601 and CM3000). Cells were counted and plated on Bio-coat collagen I coated 96-well plates (ThermoFisher, Cat. 877272) at a density of 33,000 cells/well for human or 60,000 cells/well for cyno (or 65,000 cells/well when assaying effects on TTR protein, described further below). Plated cells were allowed to settle and adhere for 6 or 24 hours in a tissue culture incubator at 37° C. and 5% CO2 atmosphere. After incubation cells were checked for monolayer formation and media was replaced with hepatocyte culture medium with serum-free supplement pack (Invitrogen, Cat. A1217601 and CM4000).
[…] formation was performed prior to electroporation or transfection of Spy Cas9 protein loaded with guide RNAs (RNPs) onto cells. For dual guide (dgRNAs), individual crRNA and trRNA was pre-annealed by mixing equivalent amounts of reagent and incubating at 95° C. for 2 min and cooling to room temperature. Single guide (sgRNAs) were boiled at 95° C. for 2 min and cooling to room temperature. The boiled dgRNA or sgRNA was incubated with Spy Cas9 protein in Optimem for 10 minutes at room temperature to form a ribonucleoprotein (RNP) complex.
For RNP lipoplex transfections, cells were transfected with Lipofectamine RNAiMAX (ThermoFisher, Cat. 13778150) per the manufacturer's protocol. Cells were transfected with an RNP containing Spy Cas9 (10 nM), individual guide (10 nM), tracer RNA (10 nM), Lipofectamine RNAiMAX (1.0 μL/well) and OptiMem. RNP formation was performed as described above.
Transfected cells were harvested post-transfection at 24, 48, or 72 hours. The genomic DNA was extracted from each well of a 96-well plate using 50 μL/well BuccalAmp DNA Extraction solution (Epicentre, Cat. QE09050) per manufacturer's protocol. All DNA samples were subjected to PCR and subsequent NGS analyses, as described herein.
(§2) To quantitatively determine the efficiency of editing at the target location in the genome, sequencing was utilized to identify the presence of insertions and deletions introduced by gene editing.
(§3) Primers were designed around the target site within the gene of interest (e.g. TTR), and the genomic area of interest was amplified.
(§4) Additional PCR was performed per the manufacturer's protocols (Illumina) to add chemistry for sequencing. The amplicons were sequenced on an Illumina MiSeq instrument. The reads were aligned to a reference genome (e.g., the human reference genome (hg38), the cynomologus reference genome (mf5), the rat reference genome (rn6), or the mouse reference genome (mm10)) after eliminating those having low quality scores. The resulting files containing the reads were mapped to the reference genome (BAM files), where reads that overlapped the target region of interest were selected and the number of wild type reads versus the number of reads which contain an insertion, substitution, or deletion was calculated.
(§5) The editing percentage (e.g., the “editing efficiency” or “percent editing” or “indel frequency”) is defined as the total number of sequence reads with insertions/deletions (“indels”) or substitutions over the total number of sequence reads, including wild type.
Guides in modified sgRNA format targeting human and/or cyno TTR were delivered to primary human hepatocytes and primary cyno hepatocytes as described in Example 1. […]

TTR [2] = assay: TTR editing in primary human hepatocytes treated with LNP formulated Spy Cas9 mRNA (SEQ ID NO: 2) and sgRNAs (Table 16); type: cell-based; settings: LNP formulated Spy Cas9 mRNA (SEQ ID NO: 2) and sgRNA, 72 hours
Experimental: as §1
In general, the lipid nanoparticle components were dissolved in 100% ethanol with the lipid component of various molar ratios. The RNA cargos were dissolved in 25 mM citrate, 100 mM NaCl, pH 5.0, resulting in a concentration of RNA cargo of approximately 0.45 mg/mL. The LNPs were formulated with a lipid amine to RNA phosphate (N:P) molar ratio of about 4.5 or about 6, with the ratio of mRNA to gRNA at 1:1 by weight.
The LNPs were formed by microfluidic mixing of the lipid and RNA solutions using a Precision Nanosystems NanoAssemblr™ Benchtop Instrument, according to the manufacturer's protocol. A 2:1 ratio of aqueous to organic solvent was maintained during mixing using differential flow rates. After mixing, the LNPs were collected, diluted in water (approximately 1:1 v/v), held for 1 hour at room temperature, and further diluted with water (approximately 1:1 v/v) before final buffer exchange. The final buffer exchange into 50 mM Tris, 45 mM NaCl, 5% (w/v) sucrose, pH 7.5 (TSS) was completed with PD-10 desalting columns (GE). If required, formulations were concentrated by centrifugation with Amicon 100 kDa centrifugal filters (Millipore). The resulting mixture was then filtered using a 0.2 μm sterile filter. The final LNP was stored at −80° C. until further use.
as §2, §3, §4, §5
Lipid nanoparticle formulations of modified sgRNAs targeting human TTR and the cyno matched sgRNA sequences were tested on primary human hepatocytes and primary cyno hepatocytes in a dose response curve. Primary human and cyno hepatocytes were plated as described in Example 1. […]

TTR [3] = assay: TTR editing in primary cyno hepatocytes treated with LNP formulated Spy Cas9 mRNA (SEQ ID NO: 2) and sgRNAs (Tables 17, 18); type: cell-based, cynomolgus monkey; settings: Table 17, LNP formulated Spy Cas9 mRNA (SEQ ID NO: 2) and sgRNA, 12.5 ng mRNA, 3.9 nM sgRNA, 72 hours
Outline: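 Primary cynomolgus hepatocytes, 24 h after plating, dosed with LNPs (N:P about 4.5 or 6, mRNA:gRNA 1:1 by weight) pre-incubated 5 min at 37° C. in medium with 6% cyno serum, in an 8-point 2-fold dose response. Editing = indel/substitution reads over total reads by amplicon MiSeq sequencing.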

| Molecule | Avg % Deletion (TTR [1]) [%] | Avg % Edit (TTR [1]) [%] | Avg % Insert (TTR [1]) [%] | 12.5 ng mRNA, 3.9 nM sgRNA Avg % Edit (TTR [2]) [%] | 12.5 ng mRNA, 3.9 nM sgRNA Avg % Edit (TTR [3]) [%] |
| --- | --- | --- | --- | --- | --- |
| G000490: TTR sgRNA modified sequence, Human, SEQ ID No. 97; guide sequence of CR003366 (nucleic acid) guide: mA*mA*mA*rUrArGrArCrArCrCrArArArUrCrUrUrArCrGrUrUrUrUrArGrAmGmCmUmAmGmAmAmAmUmAmGmCrArArGrUrUrArArArArUrArArGrGrCrUrArGrUrCrCrGrUrUrArUrCrAmAmCmUmUmGmAmAmAmAmAmGmUmGmGmCmAmCmCmGmAmGmUmCmGmGmUmGmCmU*mU*mU*mU | 9.80 | 55.90 | 46.13 | 10.53 | 15.23 |
| G000491: TTR sgRNA modified sequence, Human, SEQ ID No. 98; guide sequence of CR003338 (nucleic acid) guide: mA*mU*mA*rCrCrArGrUrCrCrArGrCrArArGrGrCrArGrGrUrUrUrUrArGrAmGmCmUmAmGmAmAmAmUmAmGmCrArArGrUrUrArArArArUrArArGrGrCrUrArGrUrCrCrGrUrUrArUrCrAmAmCmUmUmGmAmAmAmAmAmGmUmGmGmCmAmCmCmGmAmGmUmCmGmGmUmGmCmU*mU*mU*mU | 4.33 | 74.30 | 70.27 | 31.60 | 6.37 |
| G000492: TTR sgRNA modified sequence, Human, SEQ ID No. 99; guide sequence of CR003342 (nucleic acid) guide: mC*mU*mU*rCrUrCrUrArCrArCrCrCrArGrGrGrCrArCrGrUrUrUrUrArGrAmGmCmUmAmGmAmAmAmUmAmGmCrArArGrUrUrArArArArUrArArGrGrCrUrArGrUrCrCrGrUrUrArUrCrAmAmCmUmUmGmAmAmAmAmAmGmUmGmGmCmAmCmCmGmAmGmUmCmGmGmUmGmCmU*mU*mU*mU | 3.13 | 60.97 | 57.90 | 15.87 | 0.70 |
| G000493: TTR sgRNA modified sequence, Human, SEQ ID No. 100; guide sequence of CR003368 (nucleic acid) guide: mA*mA*mG*rUrGrCrCrUrUrCrCrArGrUrArArGrArUrUrGrUrUrUrUrArGrAmGmCmUmAmGmAmAmAmUmAmGmCrArArGrUrUrArArArArUrArArGrGrCrUrArGrUrCrCrGrUrUrArUrCrAmAmCmUmUmGmAmAmAmAmAmGmUmGmGmCmAmCmCmGmAmGmUmCmGmGmUmGmCmU*mU*mU*mU | 2.67 | 41.40 | 38.90 | 7.33 | 7.63 |
| G000495: TTR sgRNA modified sequence, Human, SEQ ID No. 102; guide sequence of CR003343 (nucleic acid) guide: mC*mA*mG*rArGrGrArCrArCrUrUrGrGrArUrUrCrArCrGrUrUrUrUrArGrAmGmCmUmAmGmAmAmAmUmAmGmCrArArGrUrUrArArArArUrArArGrGrCrUrArGrUrCrCrGrUrUrArUrCrAmAmCmUmUmGmAmAmAmAmAmGmUmGmGmCmAmCmCmGmAmGmUmCmGmGmUmGmCmU*mU*mU*mU | 5.37 | 50.80 | 45.80 | 23.97 | 0.73 |
| G000497: TTR sgRNA modified sequence, Human, SEQ ID No. 104; guide sequence of CR003335 (nucleic acid) guide: mC*mU*mG*rCrUrCrCrUrCrCrUrCrUrGrCrCrUrUrGrCrGrUrUrUrUrArGrAmGmCmUmAmGmAmAmAmUmAmGmCrArArGrUrUrArArArArUrArArGrGrCrUrArGrUrCrCrGrUrUrArUrCrAmAmCmUmUmGmAmAmAmAmAmGmUmGmGmCmAmCmCmGmAmGmUmCmGmGmUmGmCmU*mU*mU*mU | 8.73 | 59.67 | 51.10 | 15.10 | 0.23 |
| G000498: TTR sgRNA modified sequence, Human, SEQ ID No. 105; guide sequence of CR003359 (nucleic acid) guide: mA*mG*mU*rGrArGrUrCrUrGrGrArGrArGrCrUrGrCrArGrUrUrUrUrArGrAmGmCmUmAmGmAmAmAmUmAmGmCrArArGrUrUrArArArArUrArArGrGrCrUrArGrUrCrCrGrUrUrArUrCrAmAmCmUmUmGmAmAmAmAmAmGmUmGmGmCmAmCmCmGmAmGmUmCmGmGmUmGmCmU*mU*mU*mU | 12.70 | 72.80 | 60.17 | 24.43 | 37.90 |
